{
  "source": "paper PMC12853182",
  "about": "“Dynamic acetylation of a conserved lysine impacts glycerol kinase activity and abundance in the haloarchaeon Haloferax volcanii” (The Journal of Biological Chemistry, 2025)",
  "proteins": {"B1": {"name": "N-terminally His-tagged Haloferax volcanii glycerol kinase (His-HvGK), wildtype, purified from H. volcanii (enzyme, UniProt D4GYI5 1-510, looked up)", "chain": "MSGETYVGAIDQGTTGTRFMVFDHDGKVVANAYEKHEQIYPEPGWVEHDANEIWDNTKQVIDAALSSAGLDAEQLEAIGITNQRETTLVWDRETGQPIHNAIVWQDRRTTDRIETLEAEGKTDDVRAKTGLEPDAYFSATKAEWLLDNSDPIKLQRSRPEDIRDRAADGELAFGTIDTWLIYNLTGNHITDVTNASRTMLFNIHDMEWDDELLDEFNVPRELLPEVRPSSDDDYYGTTDADGFLGAEVPVAGALGDQQAALFGQTCFDAGDAKNTYGTGSFMLMNTGDEAVMSEHGLLTTVGFQRSGEPVQYALEGSIFITGAAIEWLEDMTLIDNAAESEKLARSVESTDGVYFVPAFTGLGAPHWDQRARGTIVGMTRGTRREHIVRATLESIAFQTRDVAEAMESDSEIDLSSLRVDGGAVKNNFLCQLQSNILDTEIVRPQVDETTALGAAYAAGLAVGYWETLDELRENWQVDREFAPKDPQNVEHRYGRWKEAVDRSLDWAREE", "modifications": "acetyl-lysine at K153, partial occupancy by AQUA-MS (50% in FruMM, 33% in ATCC rich medium, 17% in GluMM)", "notes": "Glycerol kinase (GlpK) of Haloferax volcanii, UniProt D4GYI5, gene hvo_1541; theoretical molecular weight 56.7 kDa monomer; The glpK gene was amplified and cloned into a pJAM503 backbone modified for an N-terminal His-tag fusion (pJAM4351); also called His-HvGK wt; HvGKHv; source: H. volcanii, expressed from a plasmid, cells grown in ATCC 974 rich medium, GluMM or FruMM; purified (Ni-NTA); not …"}},
  "biological_target": "the molecule itself",
  "experiment": "SEC; Superdex 200 HR 10/300 GL, 50 mM HEPES pH 7.5, 2 M NaCl, 1 mM DTT, without glycerol; His-HvGK from cells grown in ATCC, GluMM or FruMM; mass by standard curve",
  "data": [
    {"protein": "B1", "values": [
      {"measurement": "stoichiometry N", "result": 2}
    ]}
  ]
}
